The subject of test [1] is Staphylococcus aureus (JCM-2151). Kind of test: Viability assay (survival rate) in cow's milk medium. Format: cell-based. The protocol: The colonies grown on the culture medium were scraped by a platinum loop and cultivated in 1% peptone (by Difco Company) culture medium for several hours at 37° C., and the resultant microbial culture at logarithmic phase was used as the preculture in a serial concentration of 3×10^8 /ml.
A quantity of the resultant solutions of the samples were selectively mixed with a quantity of the basal medium, thereby test media for the respective tests were prepared in the combinations and eventual concentrations as specified in the respective tests.
Utilizing the samples (5), (7), (8), (9), (10), (14), (15), (17), (18) and (19), test media were prepared in the same manner as in the preparation of the test media containing sample (3) and the like, except that the aqueous solution (in the cases of samples (5) and (7), aqueous suspensions) were not dealt with sterilization filters.
To 2 ml aliquots of test media prepared in (3-1) (supra), […] aliquots of the preculture of Staphylococcus aureus prepared in (1) (2. Method, supra) were added, then incubated at 37° C. for 1 hour, 200 μl aliquots of the resultant cultures were taken out and diluted with 1% peptone solution in a series of 10^n respectively, 110 μl aliquots of the resultant dilution series were spread onto plates of standard agar culture medium, and after incubation at 37° C. for 24 hours the number of colonies grown on the plates were counted (Test. Colony Count).
Control coloney counts 1 were determined in the same manner as in the determination of the test coloney counts, except that […] aliquots of the preculture of Staphylococcus aureus prepared in (1) (2. Method, supra) were added to 2 ml aliquots of the respective control media 1 prepared in (3-2) (supra). Furthermore, control coloney counts 2 were determined in the same manner as in the determination of the test coloney counts, except that […] aliquots of the preculture of Staphylococcus aureus prepared in (1) (supra) were added to 2 ml aliquots of the respective control media 1 prepared in (3-2) (supra).
Survival rate 1=(Test Colony Count/Control Colony Count 1)×100
Survival rate 2=(Control Colony Count 2/Control Colony Count 1)×100
(Note: In the tables shown hereinafter, vulues of survival rate 2 are indicated in the row where the concentration of antimicrobial peptide or lactoferrin hydrolysate is 0.)

In test [2] the test system is microorganisms belonging to the genera of Staphylococcus and Enterococcus. Conditions: Journal of Dairy Science, Vol. 67, page 606, 1984; cited from earlier work.

This is an account of results in patent US5656591A, “Antimicrobial agents and method for treating products therewith” (Morinaga Milk Industry Co., Ltd., priority 1992, dated 1997).

B1: lactoferrin: Bovine lactoferrin on the market (by Sigma Company) (protein)
chain: APRKNVRWCTISQPEWFKCRRWQWRMKKLGAPSITCVRRAFALECIRAIAEKKADAVTLDGGMVFEAGRDPYKLRPVAAEIYGTKESPQTHYYAVAVVKKGSNFQLDQLQGRKSCHTGLGRSAGWIIPMGILRPYLSWTESLEPLQGAVAKFFSASCVPCIDRQAYPNLCQLCKGEGENQCACSSREPYFGYSGAFKCLQDGAGDVAFVKETTVFENLPEKADRDQYELLCLNNSRAPVDAFKECHLAQVPSHAVVARSVDGKEDLIWKLLSKAQEKFGKNKSRSFQLFGSPPGQRDLLFKDSALGFLRIPSKVDSALYLGSRYLTTLKNLRETAEEVKARYTRVVWCAVGPEEQKKCQQWSQQSGQNVTCATASTTDDCIVLVLKGEADALNLDGGYIYTAGKCGLVPVLAENRKSSKHSSLDCVLRPTEGYLAVAVVKKANEGLTWNSLKDKKSCHTAVDRTAGWNIPMGLIVNQTGSCAFDEFFSQSCAPGADPKSRLCALCAGDDQGLDKCVPNSKEKYYGYTGAFRCLAEDVGDVAFVKNDTVWENTNGESTADWAKNLNREDFRLLCLDGTRKPVTEAQSCHLAVAPNHAVVSRSDRAAHVKQVLLHQQALFGKNGKNCPDKFCLFKSETKNLLFNDNTECLAKLGGRPTYEEYLGTEYVTAIANLKKCSTSPLLEACAFLTR
Regarding B1, the survival rate amounted to 150 in test [1] (Test 1: peptide 0, lactoferrin 0.1 mg/ml); 150 in test [1] (Test 1: peptide 0, lactoferrin 1 mg/ml); 104 in test [1] (Test 1: peptide 0, lactoferrin 10 mg/ml); 105% in test [1] (Test 20: peptide 0, 1-monolauroyl-rac-glycerol 0, bovine lactoferrin 1 mg/ml). Besides, in test [1] (compound alone), the “antimicrobial activity of the compound added without antimicrobial peptide or lactoferrin hydrolysate (in words)” value is reported as “no antimicrobial activity was observed”. Further, the “effect of the coexisting compound on the antimicrobial activity of the antimicrobial peptide (in words)” value in test [1] (with antimicrobial peptide Seq. ID No. 26) was “augments the antimicrobial activity of the peptide”; in test [1] (with antimicrobial peptide Seq. ID No. 27), “further augments the antimicrobial activity of the antimicrobial peptides”. Moreover, the “concentration in which lactoferrin exhibits antimicrobial activity” value in test [2] was 0.5 to 80 mg/mL.
